Measured values reported in patent US20250171549A1 (Amgen, published 2025).
Where no end group is shown, it is not given here.

T1: huCCR8 (1-25)[C25S]-Nb (human, not fully specified; biotinylated for the Fab assay, non-biotinylated for the mAb assay ; biotinylated when captured on streptavidin sensors (Fab assay); non-biotinylated in the mAb assay)
T1 construct: Expressed in human cells; also called CCR8 peptide-Nb fusion; not shown: nanobody (Nb) fusion partner, any linker or tag to it, and the biotin site
T1 peptide: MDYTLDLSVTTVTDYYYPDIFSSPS

T2: huCCR8 (1-12)-Nb (human, not fully specified (C-terminus); also: fused to nanobody, biotinylated in Fab assay)
T2 construct: Expressed in human cells; also called CCR8 peptide-Nb fusion; not shown: nanobody (Nb) fusion partner, any linker or tag to it, and the biotin site
T2 peptide: MDYTLDLSVTTV


Assays:
human CCR8 [1] = target: T3, human CCR8 (human, UniProt P51685 1-355); experiment: cell-based or functional assay
human CCR8 [2] = target: T3, human CCR8; experiment: cell-based or functional assay; remark: listed apart in the source
huCCR8 (1-25)[C25S]-Nb = target: T1, huCCR8 (1-25)[C25S]-Nb; experiment: BLI (Octet), mAb on anti-huIgG Fc sensor, peptide-Nb in solution
huCCR8 (1-12)-Nb = target: T2, huCCR8 (1-12)-Nb; experiment: as above
Protocol: Binding affinities (KD equilibrium dissociation constant) and rate constants (kₐ association rate constant, kd dissociation rate constant) of an Antibody 1 Fab and CCR8-binding monoclonal antibodies (mAbs) of the present invention to a CCR8 1-12 epitope (SEQ ID NO: 82)-nanobody (Nb) fusion protein were measured using an OCTET® Biolayer Interferometry system (Sartorius AG, Göttingen, Germany). The CCR8-nanobody fusion proteins were expressed in human cells. For Fab binding, biotinylated CCR8 peptide-Nb fusions were captured on streptavidin SAX biosensors to loading levels between 2 and 4 nm and then incubated with a dilution series of the soluble Fab (top 100 nM, 6-point, 1:3 serial dilution) for 300 seconds followed by 500 seconds in buffer for dissociation. For mAb binding, mAbs were captured on an anti-huIgG Fc capture biosensor to 1 to 2 nm loading level and then incubated with a dilution series of non-biotinylated CCR8 peptide-Nb fusions (top 100 nM, 6-point, 1:3 serial dilution) for 300 seconds followed by 500 seconds in buffer for dissociation.
The OCTET® system acquires data over time (seconds) using a mechanism called Biolayer Interferometry; as proteins bind to biosensor tips, a sensitive binding signal in nm is measured by the instrument. All fiber optic tips were used once and then discarded, i.e., no regeneration. OCTET® buffer baselines, dissociation steps, and protein dilutions were made with OCTET® buffer (10 mM TRIS pH 7.5, 150 mM NaCl, 1 mM CaCl₂), 0.13% (v/v) Triton X-100 and 0.10 mg/mL BSA).
Raw data was processed with GeneData Screener v18 SPR package which uses the same data processing as the OCTET® instrument Data Analysis software (subtract average of two reference wells per column; Align Y-axis to baseline; Interstep correction align to dissociation; and Savitzky-Golay filtering). Each Fab or mAb interaction was grouped into its own sensorgram and globally fit with a 1:1 binding model to determine the association rate constant (kₐ; units M⁻¹ sec⁻¹) and the dissociation rate constant (kd; units sec⁻¹).

human CCR8 [3] = target: T3, human CCR8; experiment: cell-based or functional assay; remark: listed apart in the source
human CCR8 [4] = target: T3, human CCR8; experiment: cell-based or functional assay; remark: listed apart in the source

T3 sequence (P51685 whole entry): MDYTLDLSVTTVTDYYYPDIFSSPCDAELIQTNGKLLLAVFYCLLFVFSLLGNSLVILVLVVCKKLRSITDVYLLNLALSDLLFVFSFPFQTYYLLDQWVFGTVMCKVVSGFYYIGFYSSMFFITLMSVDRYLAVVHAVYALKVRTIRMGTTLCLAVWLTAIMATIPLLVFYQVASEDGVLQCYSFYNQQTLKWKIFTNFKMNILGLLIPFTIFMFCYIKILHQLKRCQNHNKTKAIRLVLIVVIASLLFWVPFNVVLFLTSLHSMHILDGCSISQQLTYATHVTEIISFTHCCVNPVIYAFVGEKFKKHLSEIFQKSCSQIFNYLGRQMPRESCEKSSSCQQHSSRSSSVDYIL

Binder | ADCC, Percent Non-Viable cells (EC50 pM), Donor 1 (human CCR8 [2]) [pM] | ADCC, Percent Non-Viable cells (EC50 pM), Donor 2 (human CCR8 [2]) [pM] | ADCC, Percent Non-Viable cells (EC50 pM), Donor 4 (human CCR8 [4]) [pM] | ADCC, Percent Non-Viable cells (EC50 pM), Donor 5 (human CCR8 [4]) [pM] | ADCC, Percent Non-Viable cells (EC50 pM), Donor 6 (human CCR8 [4]) [pM] | also measured
Antibody 3.0 IgG1 (antibody, V domains shown) VH: EVQLVESGGGLVKPGGSLRLSCAASGFIFSNAWMSWVRQAPGKGLEWVARIKRRTDGGTTDYAAPVKDRFTISRDDSKNTLFLQMNSLKTEDTAVYYCTTVTMVRGVIADYWGQGTLVTVSS VL: EIVLTQSPGTLSLSPGERATLSCRASQSVSSGSLAWYQQKLGQAPRLLIYGASSRATGIPDRFSGSGSGTDFTLTISSLEPEDFAVYYCQQYGSSRTFGQGTKVELKR | < 0.256 | 15.5 |  |  |  | Percent Inhibition (IC50 nM) of CCL1-dependent chemotaxis of HUT78 cells (human CCR8 [1]): 3.7 nM
Antibody 4.0 IgG1 (antibody, V domains shown) VH: EVQLVESGGGLVKPGGSLRLSCAASGFIFSNAWMSWVRQAPGKGLEWVGRIKRKTDGGTTDYAAPVKGRFTISRDDSKNTLYLLMNSLKIEDTAVYYCTVVTLVRGIIFDYWGQGTLVTVSS VL: EIVLTQSPGTLSLSPGESATLSCRVSQSVSSSQLAWYQQKPGQAPRLLIYGASSRATGIPDRFSGSGSGTDFTLTISRLEPEDFAVYYCQQYGNSRTFGQGTKVEIKR | < 0.256 | 218 |  |  |  | Percent Inhibition (IC50 nM) of CCL1-dependent chemotaxis of HUT78 cells (human CCR8 [1]): 8.4 nM
huCCR8_44379 (VH: D61S, VL: N67Q_M99G_W109F_S111A)_huIgG1z (mAb) (antibody, V domains shown, Engineered from scFv MPK20299-A4; afucosylated IgG1, HC without C-terminal lysine) VH: QVQLVESGGGVVQPGRSLRLSCAASGFTFSNYGFHWVRQTPGKGLEWVAVISYSGSNRYYADSVKGRFTISRDNSKNTLYLQMNSLRGEDTALYYCARVYYGSGTYYKNRYYYGMDVWGQGTTVTVSS VL: SYELTQPPSVSVALGQTARITCGGHNIGSKGVHWYQQKPGQAPVLVIYRQSNRPSGIPERFSGSNSGNTATLTISGTQAGDEADYYCQAFDAGTVVFGGGTQLTVLG |  |  |  |  |  | Kd (huCCR8 (1-25)[C25S]-Nb): 7.2 nM; koff (huCCR8 (1-25)[C25S]-Nb): 0.000798 s⁻¹; kon (huCCR8 (1-25)[C25S]-Nb): 110000 M⁻¹ s⁻¹; Kd (huCCR8 (1-12)-Nb): 8.1 nM; koff (huCCR8 (1-12)-Nb): 0.00107 s⁻¹; kon (huCCR8 (1-12)-Nb): 132000 M⁻¹ s⁻¹; ADCC, Percent Non-Viable cells (EC50 pM), Donor 7 (human CCR8 [3]): 0.28 pM
huCCR8_44379 (VH: D61A_D72A, VL: N67Q_M99E_W109F_S111A)_huIgG1z (mAb) (antibody, V domains shown, Engineered from scFv MPK20299-A4; afucosylated IgG1, HC without C-terminal lysine) VH: QVQLVESGGGVVQPGRSLRLSCAASGFTFSNYGFHWVRQTPGKGLEWVAVISYAGSNRYYAASVKGRFTISRDNSKNTLYLQMNSLRGEDTALYYCARVYYGSGTYYKNRYYYGMDVWGQGTTVTVSS VL: SYELTQPPSVSVALGQTARITCGGHNIGSKGVHWYQQKPGQAPVLVIYRQSNRPSGIPERFSGSNSGNTATLTISGTQAEDEADYYCQAFDAGTVVFGGGTQLTVLG |  |  |  |  |  | Kd (huCCR8 (1-25)[C25S]-Nb): 7.8 nM; koff (huCCR8 (1-25)[C25S]-Nb): 0.00114 s⁻¹; kon (huCCR8 (1-25)[C25S]-Nb): 146000 M⁻¹ s⁻¹; Kd (huCCR8 (1-12)-Nb): 9.5 nM; koff (huCCR8 (1-12)-Nb): 0.00134 s⁻¹; kon (huCCR8 (1-12)-Nb): 142000 M⁻¹ s⁻¹; ADCC, Percent Non-Viable cells (EC50 pM), Donor 7 (human CCR8 [3]): 0.52 pM
Antibody 2.1 IgG1 (LC: F2I_P51S_H53Q_L103V_N148K, HC: K87N_S94N_V98A)(LC: Y25A_S26A, HC: A71I_D72R) (antibody, V domains shown) VH: QVQLVESGGGVVQPGRSLRLSCAASGFTFSNYGMHWVRQAPGKGLEWVAVISYDGSNKFYIRSVKGRFTISRDNSKNTLYLQMNSLRAEDTAVYYCARAGGIGRFDYWGQGTLVTVSS VL: DIVMTQTPLSLSVTPGQPASISCKAAQSLLHSDGKTYLFWYLQKPGQSPQLLIYEVSNRFSGVPDRFSGSGSGTDFTLKISRVEAEDVGVYYCMQTLKLPLTFGGGTKVEIKR | < 0.256 | 13.3 |  |  |  | ADCC, Percent Non-Viable cells (EC50 pM), Donor 3 (human CCR8 [2]): 1 pM
Antibody 6.1 IgG1 (VH: S67R_A114S_I134P, VL: F71L)_huIgG1z mAb (antibody, V domains shown) VH: QVQLVESGGGVVQPGRSLRLSCEASGFTFSSYVMHWVRQAPGKGLEWVSVISYDGSRQYYTDSVKGRFTISRDNSKNTLNLQMNSLRAEDTAVYYCVRGRLATSPLFDYWGQGTLVTVSS VL: DILMTQTPLSLSVTPGQPASISCKSSQSLLYSDGKTYLFWYLQRPGQPPQLLIYEVSNRLSGVPDRFSGSGSGTDFTLKISRVEAEDVGIYYCMQSIKLPLTFGGGTKVEIKR |  |  | 4.52 | 1.05 | 3.62 | 
Antibody 5.4 IgG1 (VH: G40A, VL: S57Y_E58L_V67T_F103V)_huIgG1z mAb (antibody, V domains shown) VH: QVQLVESGGGVVQPGRSLRLSCAASGFTFSSYAMHWVRQAPGKGLEWVAVISYDGSNKYYADSVKGRFTISRDNSKNTLYLQMNSLRAEDTAVYYCARGRYFDWFLFDYWGQGTLVTVSS VL: DTVMTQTPLSLSVTPGQPASISCKSSQSLLHSDGKTYLFWYLQKPGQPPQLLIYLTSNRFSGVPDRFSGSGSGTDFTLKISRVEAEDVGVYYCMQSLRLPLTFGGGTKVEIKR |  |  | 3.43 | 0.889 | 4.62 | 
Antibody 5.5 IgG1 (VH: G40P_M41V, VL: S57Y_E58L_V67T_F103V)_huIgG1z mAb (antibody, V domains shown) VH: QVQLVESGGGVVQPGRSLRLSCAASGFTFSSYPVHWVRQAPGKGLEWVAVISYDGSNKYYADSVKGRFTISRDNSKNTLYLQMNSLRAEDTAVYYCARGRYFDWFLFDYWGQGTLVTVSS VL: DTVMTQTPLSLSVTPGQPASISCKSSQSLLHSDGKTYLFWYLQKPGQPPQLLIYLTSNRFSGVPDRFSGSGSGTDFTLKISRVEAEDVGVYYCMQSLRLPLTFGGGTKVEIKR |  |  | 4.89 | 0.837 | 3.77 | 
Antibody 6.2 IgG1 (VH: S67R_Q68A_L135K_F136L, VL: S109T_I110L)_huIgG1z mAb (antibody, V domains shown) VH: QVQLVESGGGVVQPGRSLRLSCEASGFTFSSYVMHWVRQAPGKGLEWVSVISYDGSRAYYTDSVKGRFTISRDNSKNTLNLQMNSLRAEDTAVYYCVRGRLATAIKLDYWGQGTLVTVSS VL: DILMTQTPLSLSVTPGQPASISCKSSQSLLYSDGKTYLFWYLQRPGQPPQLLIYEVSNRFSGVPDRFSGSGSGTDFTLKISRVEAEDVGIYYCMQTLKLPLTFGGGTKVEIKR |  |  | 4.12 | 2.04 | 5.14 | 
Antibody 5.0 IgG1 (antibody, V domains shown) VH: QVQLVESGGGVVQPGRSLRLSCAASGFTFSSYGMHWVRQAPGKGLEWVAVISYDGSNKYYADSVKGRFTISRDNSKNTLYLQMNSLRAEDTAVYYCARGRYFDWFLFDYWGQGTLVTVSS VL: DTVMTQTPLSLSVTPGQPASISCKSSQSLLHSDGKTYLFWYLQKPGQPPQLLISEVSNRFSGVPDRFSGSGSGTDFTLKISRVEAEDVGFYYCMQSLRLPLTFGGGTKVEIKR | < 0.256 | 167 |  |  |  | Percent Inhibition (IC50 nM) of CCL1-dependent chemotaxis of HUT78 cells (human CCR8 [1]): 13.6 nM
Antibody 5.1 IgG1 (VH: F134T, VL: S34R_S57Y_F103V)_huIgG1z mAb (antibody, V domains shown) VH: QVQLVESGGGVVQPGRSLRLSCAASGFTFSSYGMHWVRQAPGKGLEWVAVISYDGSNKYYADSVKGRFTISRDNSKNTLYLQMNSLRAEDTAVYYCARGRYFDWTLFDYWGQGTLVTVSS VL: DTVMTQTPLSLSVTPGQPASISCKSSQSLLHRDGKTYLFWYLQKPGQPPQLLIYEVSNRFSGVPDRFSGSGSGTDFTLKISRVEAEDVGVYYCMQSLRLPLTFGGGTKVEIKR |  |  | 3.68 | 0.865 | 4.89 | 
Antibody 5.3 IgG1 (VH: A71S_D72R, VL: S57Y_E58L_V67S_F103V)_huIgG1z mAb (antibody, V domains shown) VH: QVQLVESGGGVVQPGRSLRLSCAASGFTFSSYGMHWVRQAPGKGLEWVAVISYDGSNKYYSRSVKGRFTISRDNSKNTLYLQMNSLRAEDTAVYYCARGRYFDWFLFDYWGQGTLVTVSS VL: DTVMTQTPLSLSVTPGQPASISCKSSQSLLHSDGKTYLFWYLQKPGQPPQLLIYLSSNRFSGVPDRFSGSGSGTDFTLKISRVEAEDVGVYYCMQSLRLPLTFGGGTKVEIKR |  |  | 3.34 | 0.642 | 3.48 | 
Antibody 6.0 IgG1 (antibody, V domains shown) VH: QVQLVESGGGVVQPGRSLRLSCEASGFTFSSYVMHWVRQAPGKGLEWVSVISYDGSSQYYTDSVKGRFTISRDNSKNTLNLQMNSLRAEDTAVYYCVRGRLATAILFDYWGQGTLVTVSS VL: DILMTQTPLSLSVTPGQPASISCKSSQSLLYSDGKTYLFWYLQRPGQPPQLLIYEVSNRFSGVPDRFSGSGSGTDFTLKISRVEAEDVGIYYCMQSIKLPLTFGGGTKVEIKR | 2 | 37.4 |  |  |  | Percent Inhibition (IC50 nM) of CCL1-dependent chemotaxis of HUT78 cells (human CCR8 [1]): 20.1 nM
Antibody 5.2 IgG1 (VH: G40P_F134T, VL: S57Y_E58L_V67R_F103V)_huIgG1z mAb (antibody, V domains shown) VH: not shown VL: DTVMTQTPLSLSVTPGQPASISCKSSQSLLHSDGKTYLFWYLQKPGQPPQLLIYLRSNRFSGVPDRFSGSGSGTDFTLKISRVEAEDVGVYYCMQSLRLPLTFGGGTKVEIKR |  |  | 6.2 | 1.01 | 6.11 | 
